From the supplement of paper PMC12042874
± gives the uncertainty stated by the source.

Assay: amyloid nucleation score (Sup35N fusion, yeast selection) (log enrichment); library NNK3; higher = more nucleation; inactive = no reads after selection
How it was run: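 Libraries of peptides of 20 random codons fused to Sup35N were expressed in psi-negative yeast and induced 24 hours with 100 μM copper sulfate. Selection was 7 days at 30°C on medium lacking adenine and uracil, and plasmid inserts were Illumina-sequenced before and after selection. Nucleation score is the DiMSum log enrichment of output over input reads, centred on the mode score of non-aggregating sequences, and sequences with under 100 input reads were left out.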

| Substance | amyloid nucleation score |
| --- | --- |
| MCRTMLSPLMR | inactive |
| YQCTKMRLVSFRTVVLVLRG | 0.04 ± 0.8 |
| LSSYMDYGMSKVYVLWRSTW | -0.117 ± 0.28 |
| SYCTYCRKAVGCHVHDEVGG | inactive |
| SFFNFRMD | inactive |
| VKVLYSIAMGIGHGSIGKVC | -0.835 ± 0.96 |
| NPKSSPVVTFWGTGYFSAGV | inactive |
| LDHRGIRFFN | inactive |
| MSVLC | inactive |
| RLVMHSRHTMLLHARGLRSR | inactive |
| RVIRNQSVRTPP | inactive |
| SPYPITGLFWCFINWSHKVM | inactive |
| NMSTAWRRGNPVCTDSKYRV | inactive |
| SVEGQHYKLAVTFVDLYNSI | inactive |
| VVCLFRVRYRW | 1.48 ± 0.12 |
| TPVTGQQWNCFCTILHSE | 2.52 ± 0.08 |
| LQFGVRINSLFYRMVSAVVG | inactive |
| SWDYSKRNCSVEKVWTELNF | inactive |
| NRVED | inactive |
| NIWNWNNRVLFCEAGMGTCI | inactive |
| KDGFYNVPLVEPHMRSSSTP | inactive |
| PSINWASVTVLGCAHSNFRC | 2.29 ± 0.064 |
| LFGTRIYGLFLCSLNLCRRV | inactive |

| Substance | amyloid nucleation score |
| --- | --- |
| AGVWWVCRRGVFFALMLM | inactive |
| RIDSMRRMGYLNSIFGCFV | inactive |
| MSGTLCPSHNILETDCRVQV | inactive |
| ISINYVPDMFDLRDYFTVIL | inactive |
| SVRTLLVTHFLRKPLALI | inactive |
| IPRWKFN | -0.57 ± 1.1 |
| LLVGEIGYLEHTMHNCEVEG | inactive |
| VVAIWLLGAINMLITTIYSS | inactive |
| SYYISMVYTVMSMNASFSRS | inactive |
| GIFIKFGYR | inactive |
| FLNSKGFTIAGYKNSKWGSR | inactive |
| SHECNLCFNVL | inactive |
| FCYGSFGGLRELYCC | inactive |
| FLNCSSQKNATPHILFNGGM | inactive |
| GTDWLDMVILGEPFYMYLST | inactive |
| LFVLSTKSLFP | 1.39 ± 0.089 |
| YAKCSDVY | inactive |
| IGINVRALRRGLTLVPL | inactive |
| SGIFKLNCHKVGLILQSPYR | 0.055 ± 0.35 |
| QGMALPLTTGGGVNKRTCYG | inactive |
| FSIPCDFDDNFATQELS | inactive |
| DLRSITMCWCIIPTGRCVVA | inactive |
| FYMAKRICKVQHGVNGPYAK | inactive |

| Substance | amyloid nucleation score |
| --- | --- |
| LKRYFI | inactive |
| GRIEKVVRNA | inactive |
| HCSWTSSAHEGPYAETGHWQ | 0.557 ± 0.24 |
| PGDNIYILMGVYKGILWWAE | inactive |
| MRHEHAYSIPAHCIYELIMM | inactive |
| QLNGCYCQFWMMKARTTKFH | 2.86 ± 0.054 |
| ECYMVCFDSCSNIMFVLDLE | 1.92 ± 0.095 |
| ACGGCHYKRAYMQLGLMRLK | inactive |
| RMPNSTFGVGWETGFQHSQG | inactive |
| TLNGFLNGYEYQ | inactive |
| FLAVLNLPGCGMDMRNLINL | inactive |
| YAIAAYFDKRRIVGWVINCS | inactive |
| RCRCTFYCFRVL | inactive |
| APGIFPMSGMISYSLRV | inactive |
| LAAMWPFV | inactive |
| ERIIFYCNRVRRMLYGGLVR | inactive |
| SNWVLACYKI | inactive |
| YVCSDSMLEARVREGTEYRS | -0.259 ± 0.98 |
| SSRSRTRWASNFLAHAYGRF | inactive |
| LIRNEGFCEKS | 0.244 ± 0.14 |
| LVVWRIRWRDKGSL | inactive |
| YTRISTIFGYSAMVQFMPCQ | inactive |
| KYCYIEWN | inactive |

| Substance | amyloid nucleation score |
| --- | --- |
| QQRHMLS | 0.294 ± 0.25 |
| TLSWLRPPPSRPLLFHEVSW | -0.246 ± 0.8 |
| IGDNCCIWMLDVHSVTLVSE | 0.329 ± 0.2 |
| PGHIYVML | inactive |
| CKYLPLRNYGSCSPGYGKYV | inactive |
| TNMVMA | inactive |
| WLLKIMQYLDLAGNG | inactive |
| SGFDYV | inactive |
| LNSYQDYSRGVLLKRKALLY | inactive |
| QSCCKQQILYHRGQTRHQ | inactive |
| VRSNVKDRFT | inactive |
| SKRVSALRHKIRKNCVMNFD | inactive |
| IRGEFLQQPFIVDRNHVRWL | inactive |
| YETYSCEFFVYRLFCLNRSH | inactive |
| CHSFIMIYVVMMDIS | 0.103 ± 0.55 |
| FVTYDPYTFIDYFIVSHPRL | 0.61 ± 0.17 |
| NFCFLCSWCIL | 2.56 ± 0.052 |
| IVHNYFSFCHYNRGRVGLFI | 2.64 ± 0.074 |
| TSRDQPRNVYVVVAVI | inactive |
| SILKDS | inactive |
| ITLGACS | inactive |
| VWWSYLQKSKILI | 0.624 ± 0.2 |
| FSALMIY | 0.015 ± 0.32 |

| Substance | amyloid nucleation score |
| --- | --- |
| FIYNVDVHCASSVNIGWGQK | 2.83 ± 0.08 |
| PNIMCYLVAMCVGLKFPARW | inactive |
| REWIGLSTYDSA | inactive |
| RTPLYAVLWVEGGLLPYLL | inactive |
| RIRGTCMGL | inactive |
| WAVIFT | inactive |
| NLYMGRPKRRVIGYLVACFA | inactive |
| ESNGVSGPAQMERDTVPEVP | inactive |
| LYSLVV | inactive |
| REITSWLDIDFL | inactive |
| FSFPMEIWKGFVYRTA | 3.16 ± 0.081 |
| FQESVIWKVYRNNNYRSLTV | inactive |
| FVMGMNAVQRSLSSIYTLCV | inactive |
| SVGRSST | inactive |
| RVCFLRINDGR | 0.06 ± 0.49 |
| WEYNASLLVLTHLGWAFHLC | inactive |
| FSCIKTRMVGYSLRLNQFVD | inactive |
| VVQSYFIRREEFLLSCVQAG | inactive |
| LWGYGL | inactive |
| CSTISVTLALV | inactive |
| VSTSVDYFYGGPWTLVFGCL | 2.6 ± 0.072 |
| LNSKIKLNYYLIF | 0.108 ± 0.19 |
| CYDDRHENHHYGE | inactive |

| Substance | amyloid nucleation score |
| --- | --- |
| NFTSFCFSKMSRLEDSGQ | inactive |
| CHWNYTKIRHFYEVVGDQTG | inactive |
| LLTARTITSCKQWPGTSRYT | inactive |
| LMMLCLSVGMMKRSAYRLFT | inactive |
| TLGTLSICLCIFRYPGKTEA | inactive |
| LCDGCKNMFLLPLY | inactive |
| RYRPHNPDVVN | inactive |
| VSRCRVHKFTGYC | -0.441 ± 0.8 |
| DRCNVGRYLG | inactive |
| NTGLAFTSYMTMDLLCISGA | inactive |
| ISYTTSNYITLVYKLTNRAY | 0.911 ± 0.13 |
| SRLMRKRISA | inactive |
| LFVFIYSVSGLLDDGVGLGG | inactive |
| LGNSAKVVLRWVEGVGLGVA | inactive |
| INPRSYADLYYIRFNHWWLL | inactive |
| SMSFFMSNGRALLYCQMQFA | inactive |
| LPNSNTGKKCYGMNHSKENC | inactive |
| KTLTKSNIWIG | -0.639 ± 0.87 |
| DFMWLKGLNPSTLSLPWD | inactive |
| SYMLWYSS | inactive |
| TVGVKKYAMGRRYIV | inactive |
| VKSRNENIDPGCWRLELAPF | inactive |
| SRILGNRMAFTA | inactive |

| Substance | amyloid nucleation score |
| --- | --- |
| TWWCLN | inactive |
| YWNIMIGYLLKSTGSGRSA | inactive |
| YDTNLRLFRSRRLSPGWCFR | inactive |
| RWKFYILVIYGVSASTFAQG | inactive |
| LFHSAMNGSHFSTVHSNSVI | inactive |
| WFNQHTECHGRSVHLAAHNV | -0.14 ± 1 |
| SNSLV | inactive |
| GWSQYGACRVGVWGYRAPYN | inactive |
| VAAMSVFSVGCLINIALRSN | 0.93 ± 0.2 |
| NISYKW | 0.377 ± 0.34 |
| SYTFVCRPTFYVCFCGSMCF | 2.45 ± 0.065 |
| FSMSPSTTYRAFGHYSPGQH | -0.074 ± 0.5 |
| KEGDFPLSSSRYSYTNYLVI | inactive |
| CLLVRTIMRVLYFWMES | inactive |
| MFVSDKEYRCVTSSVTRVCT | inactive |
| RMLTHKQIIIRTVWTQYVYI | inactive |
| ISRSGNLLGYKDLLVATKSG | inactive |
| YFQLLVSLVSVFH | inactive |
| NILPRRGEQAV | inactive |
| RNVQLMVPFTAGVLWVLQCK | inactive |
| FVCLLCPMYYVHSTMWMSAR | 2.01 ± 0.057 |
| VLLVCFLRTRKCSRLLAC | inactive |
| AQSGVPRGAPGLAFDSVPHK | inactive |
